Bounds are passed on as bounds.

The record followed here is patent US20060240002A1, “Methods of inhibiting angiogenesis-dependent conditions mediated by cryptic epitopes of extracellular matrix components” (priority 2005, published 2006).

For test [1], the target named is denatured collagen type-IV. Kind of test: cell-based or functional assay.
The target in test [2] is αvβ3 integrin (human) (UniProt P06756). The test is described as follows: cell-based or functional assay.
The test system of test [3] is P27^KIP1. Kind of test: Western blot of P27^KIP1 in B16F10 melanoma cells on denatured collagen. In kind it is cell-based, murine. The settings on record: 24 hours. The procedure: (§1) To examine the effect of CLK-peptide on the expression of cyclin-dependent […] P27^KIP1, B16F10 melanoma and GL261 glioblastoma cells were resuspended in adhesion buffer in the presence or absence of CLK-peptide or control peptide. Cells were added to culture plates coated with denatured collagen and allowed to incubate for 24 hours. Total cell lysates were prepared and the proteins analyzed by Western Blot analysis.
For orientation: In western blotting, separated proteins are transferred to a membrane and probed.

In test [4] the test system is P27^KIP1. Kind of test: Western blot of P27^KIP1 in GL261 glioblastoma cells on denatured collagen. The class given is cell-based. The settings on record: 24 hours. The procedure: as §1
The subject of test [5] is P21^CIP1. The test is described as follows: Western blot of P21^CIP1 in M21 cells. In kind it is cell-based, human. As to conditions: 12 hours, 1% serum-containing medium. As for the experimental part: The effect of CLK-peptide on the expression of P21^CIP1 was examined by Western Blot analysis. M21 cells were resuspended in adhesion buffer in the presence or absence of CLK-peptide and allowed to incubate for 12 hours in 1% serum-containing medium. Total cell lysates were prepared and the levels of P21^CIP1 and actin analyzed by Western Blot analysis.

Test [6] concerns B16F10 tumor cells. The test is described as follows: Differential cDNA array analysis of B16F10 tumor cells treated with peptides (Example X). In kind it is cell-based, murine. As to conditions: 12 hours, Example X written in present tense. As for the experimental part:
To evaluate the effect of inhibiting the HUIV26 cryptic collagen epitope using the SLK- and CLK-Peptides, an Affymetrix™-based differential cDNA array analysis is performed using B16F10 tumor cells treated or not treated with SLK- or CLK-peptide. Non-tissue culture treated dishes are coated overnight with 100 μg/ml of denatured collagen IV in PBS. The next morning the plates are washed and incubated in blocking solution (1% BSA in PBS) for approximately 30 minutes. Tumor cells (7×10^6) are resuspended in serum free media and added to each plate in the presence or absence of CLK-Peptide, SLK-Peptide or a control peptide. The cells are allowed to incubate for a total of 12 hours.
Following the 12-hour incubation period, the cells are harvested and the RNA is isolated using both a TRIzol reagent and the Qiagen Rneasy Mini Protocol for RNA Cleanup. After RNA extraction, the amount and quality of RNA is quantified utilizing a spectrophotomer. 5-8 μg of total RNA is utilized to synthesize double-stranded cDNA. The first cDNA strand is obtained using a reaction mixture containing a T7-(dT)24 Primer, 1× First Strand Buffer, 0.1M DTT and 10 mM dNTP mix in addition to the extracted RNA. The tubes are incubated at 42° C. for approximately 1.5 hours. […]

For test [7], the system named is B16F10 tumor cells. The test is described as follows: Real time quantitative RT-PCR of B16F10 cells treated with peptides (Example X). The class given is cell-based, murine. As to conditions: vs control peptide, Example X written in present tense. As for the experimental part:
Relative expression levels of genes are assessed by both real time quantitative RT-PCR and Western Blot analysis. Tumor cells (B16F10) are allowed to interact with denatured collagen type-IV in the presence or absence of the SLK-peptide, CLK-peptide, or control peptide. Whole cell lysates are prepared from the various cell samples.
Real Time quantitative RT-PCR is carried out essentially as described with some modifications (Livak et al., Method 2001, 25:402-408). Total RNA is isolated using RNeasy miniprep columns (Qiagen, Valencia Calif.) according to the manufacturer's instructions. Total RNA (1 μg) is reverse transcribed using 1× Reverse Transcriptase Buffer, MgCl2 (3 mM), dNTP (2.0 mM), RNAse inhibitor (0.2 U/μl), random hexamer primers (0.5 mM), and MMLV reverse transcriptase (0.3 U/μl) in 20 μl reactions using a 3-step cycle (Promega, Madison, Wis.). Real-time fluorescence detection is carried out using an ABI Prism 7900 Sequence Detection System. Reactions are carried out in microAmp 96 well reaction plates. Primers and probes are designed using Primer 3 version 2 and ENSEMBL software (Promega).

For test [8], the system named is B16F10 tumor cells. The test is described as follows: Western blot of B16F10 cells treated with peptides (Example X). The settings on record: B16F10 cells on denatured collagen type-IV; vs no treatment or control peptide; Example X written in present tense. In kind it is cell-based, murine. As for the experimental part:
Western blot analyses indicate a corresponding increase in protein levels. Western blotting was performed as previously described, by coating non-tissue culture treated plates with denatured collagen type-IV (10.0 μg/ml). Equal numbers of tumor cells (B16F10) from sub-confluent cultures are harvested, washed and added to the coated plates in the presence or absence of SLK-peptide, CLK-peptide, or control peptide, and allowed to incubate in 1.0% serum-containing medium. Cells are harvested, washed, and lysed in 1.0% Triton X-100 buffer containing 300 mM NaCl, 50 mM Tris (pH 7.0) and 1× protease inhibitor cocktail. Equal amounts (25 μg/lane) of tumor cell lysates are separated by SDS Page and transferred to nitrocellulose membranes. Membranes are probed by incubation with either polyclonal antibodies directed to P21^CIP1 or Actin (Santa Cruz) as described previously (Brooks et al., Cell 1998, 92: 391-400; Petitclerc et al., Cancer Res. 1999, 59: 2724-2730). Western blots are visualized by a chemiluminesence detection system (Amersham Life Sciences).

UniProt P06756, sequence (P06756 31-1048, chain 1 of 2): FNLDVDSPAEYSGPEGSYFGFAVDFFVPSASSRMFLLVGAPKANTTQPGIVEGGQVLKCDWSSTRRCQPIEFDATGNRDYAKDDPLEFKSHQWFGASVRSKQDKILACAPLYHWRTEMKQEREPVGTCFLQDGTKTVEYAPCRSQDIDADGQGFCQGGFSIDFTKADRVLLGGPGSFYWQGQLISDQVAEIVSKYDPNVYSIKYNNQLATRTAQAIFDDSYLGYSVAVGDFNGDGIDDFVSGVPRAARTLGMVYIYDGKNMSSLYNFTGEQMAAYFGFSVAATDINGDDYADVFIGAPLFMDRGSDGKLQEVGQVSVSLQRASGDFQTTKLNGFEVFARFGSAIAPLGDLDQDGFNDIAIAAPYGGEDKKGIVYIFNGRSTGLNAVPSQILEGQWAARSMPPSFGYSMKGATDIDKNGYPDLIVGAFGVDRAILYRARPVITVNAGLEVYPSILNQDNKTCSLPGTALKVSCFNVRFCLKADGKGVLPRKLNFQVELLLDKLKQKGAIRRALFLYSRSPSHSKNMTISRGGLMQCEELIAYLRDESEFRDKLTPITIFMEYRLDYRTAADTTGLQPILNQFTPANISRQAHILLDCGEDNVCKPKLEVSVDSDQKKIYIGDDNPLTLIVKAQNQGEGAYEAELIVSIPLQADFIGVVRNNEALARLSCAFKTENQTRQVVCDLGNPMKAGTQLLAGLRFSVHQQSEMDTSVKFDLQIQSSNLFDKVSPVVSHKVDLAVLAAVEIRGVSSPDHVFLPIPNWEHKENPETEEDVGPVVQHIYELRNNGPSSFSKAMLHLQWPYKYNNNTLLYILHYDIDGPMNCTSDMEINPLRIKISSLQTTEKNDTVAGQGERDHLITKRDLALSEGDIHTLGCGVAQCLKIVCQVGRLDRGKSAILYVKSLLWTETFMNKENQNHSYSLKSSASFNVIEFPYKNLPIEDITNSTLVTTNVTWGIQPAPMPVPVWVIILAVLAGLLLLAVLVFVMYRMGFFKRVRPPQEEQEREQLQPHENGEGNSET
UniProt P06756, sequence (P05106 27-788, chain 2 of 2, further chain): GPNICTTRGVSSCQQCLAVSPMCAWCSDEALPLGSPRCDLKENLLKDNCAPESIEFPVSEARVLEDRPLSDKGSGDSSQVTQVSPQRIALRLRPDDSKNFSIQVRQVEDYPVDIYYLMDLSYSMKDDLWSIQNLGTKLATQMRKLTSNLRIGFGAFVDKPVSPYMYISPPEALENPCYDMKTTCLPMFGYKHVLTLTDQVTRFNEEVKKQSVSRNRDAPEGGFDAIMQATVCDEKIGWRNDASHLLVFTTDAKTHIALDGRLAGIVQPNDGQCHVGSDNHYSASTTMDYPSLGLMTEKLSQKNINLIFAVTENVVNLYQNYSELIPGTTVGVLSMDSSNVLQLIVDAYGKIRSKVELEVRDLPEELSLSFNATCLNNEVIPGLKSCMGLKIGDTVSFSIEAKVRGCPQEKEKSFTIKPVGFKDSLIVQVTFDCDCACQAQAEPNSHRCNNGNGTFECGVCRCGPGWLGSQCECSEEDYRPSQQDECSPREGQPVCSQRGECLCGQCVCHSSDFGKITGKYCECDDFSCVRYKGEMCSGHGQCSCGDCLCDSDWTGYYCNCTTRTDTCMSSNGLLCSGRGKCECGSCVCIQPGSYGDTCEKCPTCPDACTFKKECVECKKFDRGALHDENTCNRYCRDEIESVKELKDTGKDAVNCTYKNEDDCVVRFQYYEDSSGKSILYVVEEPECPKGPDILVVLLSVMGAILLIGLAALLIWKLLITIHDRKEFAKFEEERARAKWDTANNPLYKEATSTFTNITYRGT

Take Mab HUI77 (antibody): in test [1], the relative level of P21^CIP1 mRNA in HUVECs (real time RT-PCR) is 10 fold and the relative level of P27^KIP1 mRNA in HUVECs (real time RT-PCR) is over 5 fold.
As to Mab HUIV26 (antibody), in test [1], the TSP-1 mRNA levels in HUVECs (real-time PCR) was 6 fold, the adhesion of B16F10 cells to denatured collagen type-IV was found to be 50 % inhibition, the expression of P21^CIP1 protein in B16F10 cells (Western blot) was 2 fold and the migration of B16F10 tumor cells on denatured collagen type-IV is 50 % inhibition. For the same substance, in test [1], the relative level of P21^CIP1 mRNA in B16F10 cells (real time RT-PCR) is 2.3 fold, the relative levels of IGFBP-4 RNA in M21 cells (RT-PCR) was determined as 115 fold, the relative levels of IGFBP-4 mRNA in HUVECs (RT-PCR) was over 10 fold and the relative levels of Id-1 in M21 cells (real-time PCR) (fold decrease) was determined as 2. The same substance had a relative levels of TSP-1 RNA in M21 cells (real-time PCR) in test [1] of 7 fold.
As for Mab LM609 (antibody), the relative level of TSP-1 in M21 cells on denatured collagen type-IV (real-time PCR) in test [2] worked out at 8 fold.
For “NH2—C-L-K-Q-N-G-G-N—F—S-L-G-COOH (H-CLKQNGGNFSLG-OH) [CLK-peptide]”, the “expression of P27^KIP1 (Western blot)” value in test [3] and in test [4] was “significant upregulation” each time. Besides, the “expression of P21^CIP1 (Western blot)” value in test [5] is listed as “significant upregulation”. Moreover, the “expression of certain genes (cDNA array)” value in test [6] is recorded as “significant increase”. Besides, the “relative levels of certain RNAs (RT-PCR)” value in test [7] was “significant increase in the relative levels of certain RNAs and significant decrease in other RNAs”. In test [8], the “expression of certain proteins (Western blot)” value is “significant increase in expression of certain proteins and a significant decrease in expression of other proteins”.
On to “NH2—S-L-K-Q-N-G-G-N—F—S-L-C—COOH (H-SLKQNGGNFSLC-OH) [SLK-peptide]”, for which, in test [6], the “expression of certain genes (cDNA array)” value is on record as “significant increase”. Also, the “relative levels of certain RNAs (RT-PCR)” value in test [7] was “significant increase in the relative levels of certain RNAs and significant decrease in other RNAs”. Further, in test [8], the “expression of certain proteins (Western blot)” value is “significant increase in expression of certain proteins and a significant decrease in expression of other proteins”.
